{"source": "patent US5885772", "target": "F-actin", "experiment": "cosedimentation with F-actin through a sucrose cushion, SDS-PAGE"}
{"substance": "MacMARCKS", "values": [{"measurement": "Kd", "value": 0.053, "unit": "µM"}, {"measurement": "stoichiometry (actin monomers per MacMARCKS)", "value": 12}]}
